The data set is described as follows: yeast display, Sf9 membrane polyspecificity reagent, FACS + sequencing; frameworks hold sequencing errors. The method in brief: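 Galactose induction of a Saccharomyces cerevisiae BJ5465 synthetic nanobody display library ran 36–48 hours. The cells were then stained for 1 hour at 4 °C with 10% biotinylated, detergent-solubilized Sf9 membrane reagent, pulled down on streptavidin microbeads and FACS-sorted into low and high (top ~1%) gates on expression and reagent-binding fluorescence. Labels for polyreactivity follow the gate of origin.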
Regarding “QVQLVESGGGLVQAGGSLRLSCAASGSISQPYAMGGYRQAPGKERELVAAIRWSGGSTYYADSVKGRFTISRDNAKNTVYLEMNCLNPEDTAVYYCNKTTYYPSDYVYWGQGTQVTVSS”, the “polyreactivity (PSR sort gate)” value was “low polyreactivity”. Take “QVQLVESGGGLVQAGGSLRLSCAASGSISSFYAMGWYRQAPGKERELVAGITSGGSTNYADSVKGRFTISRDNAKNTVYLQKNSLKPEDTAVYYCAAVYQGAGTHFDVFVKEFDYWGQGTQVTVSS”: the “polyreactivity (PSR sort gate)” value is listed as “low polyreactivity”. In the case of “QVQLVESGGGLVQAGGSLRLSCAASGSISTVYAMGWSRQAPGKERELVAAISWSGGSTYYADSVKGRFTISRDNAKNTDYLQMNSLKPEDTAFYYCAVRGLLYHSYYSVRYDYWGQGTQVTVSS” it was “high polyreactivity”; in that of “QVQLVESGGGLVQAGGSLRLSCAASGSISTYNDSGWYRQAPGKEREFVASITLSTGRTDYADSVKGRFTISRDNAKNTVYLQMNSLKPEETAVYVCSVRDYARKYLTSFDYWGQGTQVTVSS”, “high polyreactivity”. In the case of “QVQLVESGGGLVQAGGSLRLSCAASGSISVGYTMGWYRQAPGKEREFVAVITGTGGRTRYSDSVKGRFTISRDNAKNTVYLQMNSLKPEDTAGYYCAAKIRWRGALYDYWGQGTQVTVSS” it was “high polyreactivity”; in that of “QVQLVESGGGLVQAGGSLRLSCAASGSISVRNVMGWYRQAPGKERELVATIRRTGGSTSYADSVKGRFTISRDNAKNTVYVQMNSLKPEDTAVYYCAAVGYTTYRRYDYWGQGTQVTVSS”, “low polyreactivity”. With “QVQLVESGGGLVQAGGSLRLSCAASGSISVRNVMGWYRQAPRKERELVATIRRTGGSTSYADSVKGRFTISRDNAKNTVYLQMNSLKPEDTAVYYCAAVGYTTYRRYDYWGQGTQVTVSS” the entry was “low polyreactivity”; with “QVQLVESGGGLVQAGGSLRLSCAASGSISVSYMGWYRQAPGKERELVAAINWRGGSTYYADSVKGRFTISRDNAKNTVYLQMNSLKPEDTAVYYCAADYTVSYPYYEYYYWGQGTQVNVSS”, “high polyreactivity”. Take “QVQLVESGGGLVQAGGSLRLSCAASGSISWKYAMGWSRQAPGKERELVAAISWSGSSTYYADSVKGRFTISRDNAKNTVYLQMNSLKPEDTAVYYCAADRVSRLTNRREYWGQGTQVTVSS”: the “polyreactivity (PSR sort gate)” value is “high polyreactivity”. In the case of “QVQLVESGGGLVQAGGSLRLSCAASGSISYDYAMGWYRQAPGKERELVASITSRGGSTYADSVKGRFTISRDNAKNTVYLQMNSLKPEDTAVYYCAADAIPNLIFISLPFGLDYWGQGTQVTVSS” it was “low polyreactivity”; in that of “QVQLVESGGGLVQAGGSLRLSCAASGSISYFNDMGWYRQAPGKERELVAAIRDSGGITYADSVKGRFTISRDNAKNTVYLQMNSLKPEDTAVYYCDKDAGLQKYHHDYWGQGTQVTVSS”, “low polyreactivity”; in that of “QVQLVESGGGLVQAGGSLRLSCAASGSISYQNAMGWYRQAPGKERELVAAISGDGDSTYYADSVKGRFTISRDNAKNTVYLQMNSLKPEDTAVYYCAAEPNVYFSVFVLFPSDYWGQGTQVTVSS”, “low polyreactivity”. Regarding “QVQLVESGGGLVQAGGSLRLSCAASGSISYRYVMGWYRQAPGKERELVAAITTSGGSTYYADSVKGRFTISRDNAKNTVYLQKNSLKPEDTAVYYCAKVYQADQLRSHYDYWGQGTQVTVSS”, the “polyreactivity (PSR sort gate)” value is given as “high polyreactivity”. For “QVQLVESGGGLVQAGGSLRLSCAASGSISYYNAMGWYRQAPGKERELVATITDSGGSTYYADSVKGRFTISRDNAKNTVYLQMNSLKPEDTAVYYCAVDYTEWYSIYDYWGQGTEVTVSS”, the “polyreactivity (PSR sort gate)” value is “low polyreactivity”.

Turning to “QVQLVESGGGLVQAGGSLRLSCAASGSISYYYGMGWYRQAPGKERELVAAISTRGGSTYYADSVKGRFTISRDNAKNTVYLQMNSLKPEDTAVYYCAVRYYRPYSRFDYWGQGTQVTVSS”, the “polyreactivity (PSR sort gate)” value is given as “high polyreactivity”. With “QVQLVESGGGLVQAGGSLRLSCAASGSITVPYGMGWYRQAPGKERELVAAITGGSTNYADSVKGRFTISRDNAKNTVYLQMNSLKPEDTAVYYCAADWWALYTRYDYWGQGSQVTVSS” the entry was “low polyreactivity”.

(Values after the nanobody polyreactivity screen of Harvey et al. (2022).)
